What was measured:
[1] = tested on: testicular tumors in inh-KO mice; test: Testicular tumor mass in inh-KO mice (necropsy); assay type: in vivo, mouse; conditions: 8-week-old male inh-KO mice; single dose 30 mg/kg SC; necropsy 14 days after injection; FIG. 4A, 4B
Experimental: (§1) 12-week-old female and 8-week-old male inh-KO mice with fully established ovarian or testicular tumors received a single injection of PBS or sActRIIB (30 mg/kg, SC). As a control, age-matched wild-type littermates received a single injection of PBS. Ovarian and testicular organ weights were determined by necropsy 14 days after the injection.

[2] = tested on: Smad2 signaling (phospho-Smad2); test: Western blot of phospho-Smad2 in tumors of inh-KO mice; assay type: in vivo, mouse; conditions: increase over WT controls, FIG. 5B
Experimental: as §1
(§2) Protein extracts were prepared from cell cultures or tissues in T-PER tissue protein extraction reagent (Pierce) containing a mixture of protease inhibitors (Roche). A pool of 50 μg total protein for each group containing equal amounts of protein extract isolated from individual animals was separated by NuPAGE 4-12% Bis-Tris gel (Invitrogen) and transferred to PVDF. The membranes were probed with primary antibodies against total Smad2, p-Smad2 or E-cadherin (1:1000; Cell Signaling), endoglin, osteopontin (1:500; R&D Systems), IGFBP-1, IGFBP-2 (1:500; Abcam) followed by HRP-conjugated secondary antibody (1:2000; Cell Signaling). The membranes were stripped and re-probed with antibody against α-tubulin (1:1000; Cell Signaling).

[3] = tested on: ovarian tumors in inh-KO mice; test: Light microscopy (H&E) of ovaries of inh-KO mice; assay type: in vivo, mouse; conditions: female inh-KO mice; FIG. 7A
Experimental: as §1
(§3) Testes and ovaries from inh-KO mice were fixed with Zinc-formalin. Tissue sections were subjected to H&E staining and then examined with a Nikon Eclipse 90i microscope.

[4] = tested on: testicular tumors in inh-KO mice; test: Light microscopy (H&E) of testes of inh-KO mice; assay type: in vivo, mouse; conditions: male inh-KO mice; FIG. 7B
Experimental: as §1, §3

[5] = tested on: VEGF; test: Serum VEGF in inh-KO mice (ELISA); assay type: in vivo, mouse; conditions: inh-KO mice with advanced ovarian and testicular tumors; single dose; FIG. 8A
Experimental: as §1
The serum VEGF levels in inh-KO mice were measured by using immunoassay kit (R&D Systems), and the levels of human VEGF and Ang-1 in cell line culture medium were quantified using ELISA kits purchased from Invitrogen (VEGF) and R&D Systems (Ang-1), by following the manufacturers' recommended protocols.

[6] = tested on: endoglin; test: Western blot of endoglin in ovarian tumors of inh-KO mice; assay type: in vivo, mouse; conditions: FIG. 8D
Experimental: as §1, §2

[7] = tested on: IGFPB-2; test: Western blot of IGFBP-2 in ovarian tumors of inh-KO mice; assay type: in vivo, mouse; conditions: FIG. 8D
Experimental: as §1, §2

[8] = Body weight of TOV-21G xenograft-bearing mice; assay type: in vivo, mouse; conditions: TOV-21G xenograft-bearing athymic nude mice; during the course of the experiment; vehicle controls lost 10%
Experimental: In another experiment, athymic nude mice received TOV-21G xenografts in the abdominal flank. After 14 days, subcutaneous hu-sActRIIB-Fc was administered weekly alone or in combination with 5-FU.

[9] = tested on: CD31; test: CD31 immunostaining in TOV-21G xenograft tumor sections; assay type: in vivo, mouse; conditions: FIG. 15B
Experimental: 5×10^6 TOV-21G ovarian cancer cells were implanted subcutaneously into individual female athymic nu/nu mice (Harlan). Treatment was initiated at day 12 after tumor implantation, when the average tumor volume reached approximately 150 mm^3. The mice received PBS, sActRIIB (30 mg/kg, SC, 1×/week) or activin-A antibody (30 mg/kg, SC, 2×/week). In a separate chemotherapy combination experiment, the mice were treated with PBS, sActRIIB (10 mg/kg, SC, 1×/week), 5-FU (50 mg/kg, IP, 3 cycles, 4 daily injections per cycle) or sActRIIB and 5-FU combination at the same doses above.
Zinc-formalin fixed paraffin tumor tissue sections of 4 μm in thickness were prepared. The sections were subjected to antigen retrieval by microwave 3 min in Unmask solution (Vector H-3300) followed by incubation in 10 μg/ml Proteinase-K for 20 min and in 1% H2O2 in dH2O for 10 min at room temperature. The sections were further incubated in 0.1% Tween-20 in PBS for 3 min to permeabilize the cell membrane and in goat serum for 30 min to block non-specific binding. The sections were then incubated at room temperature with specific primary antibody for 3 hours followed by incubation in biotinylated or fluorescently labeled secondary antibody. […] The immunostained tissue sections were analyzed and photographed using a Nikon Eclipse 90i microscope equipped with DS-Ril camera. […]

[10] = tested on: VEGF transcripts; test: VEGF mRNA in cell cultures (real-time RT-PCR); assay type: cell-based, human, bovine; conditions: TOV-21G, BAEC, MRC-5, CCD-Lu, U937 cultures treated with recombinant activin-A, without or with sActRIIB; FIG. 16A

B1: sActRIIB: extracellular domain of human activin type-2B receptor fused to IgG2 Fc, expressed in CHO cells; sequence in the 26th table (protein)
chain: ETRWCIYYNANWELERTNQGLERCEGEQDKRLHCYASWRNSSGTIELVKKGCWLDDFNCYDRQECVATEENPQVYFCCCEGNFCNERFTHLPEAGGPEVTYEPPPTAPTGGGGSVECPPCPAPPVAGPSVFLFPPKPKDTLMISRTPEVTCVVVDVSHEDPEVQFNWYVDGVEVHNAKTKPREEQFNSTFRVVSVLTVVHQDWLNGKEYKCKVSNKGLPAPIEKTISKTKGQPREPQVYTLPPSREEMTKNQVSLTCLVKGFYPSDIAVEWESNGQPENNYKTTPPMLDSDGSFFLYSKLTVDKSRWQQGNVFSCSVMHEALHNHYTQKSLSLSPGK
modifications: left off: a dimerising Fc or GST
- testicular tumor mass [1]: dramatic regression of testicular tumor masses to the WT control levels
- phospho-Smad2 in tumor tissues (Western blot) [2]: eliminated this increase in phospho-Smad2
- ovarian morphology (light microscopy) [3]: the ovaries were normal in size and contained many recognizable follicles, minimal tumor cell invasion and few hemorrhagic lesions
- testicular morphology (light microscopy) [4]: the testes were normal in size and filled with seminiferous tubules
- circulating VEGF levels [5]: rapidly lowered the elevated VEGF to WT control levels
- endoglin induction (Western blot) [6]: abolished completely
- IGFPB-2 induction (Western blot) [7]: abolished completely
- body weight increase [8]: 26%
- CD31 immunostaining (newly formed microvessels) in TOV-21G tumor sections [9]: lack of such new microvessels
- levels of VEGF transcripts [10]: prevented this induction
